In patent US20100168031:

Key:
[1] = target: T1, L(+)-biotinyl-aminohexanoyl-Glu-Glu-Gly-Ala-Pro-Asp-Tyr-Glu-Asn-Leu-Gln-Glu-Leu-Asn (SEQ ID NO:12)
T1 chain: EEGAPDYENLQELN

[2] = target: compounds represented by SEQ ID NO:12, SEQ ID NO:13, SEQ ID NO:14 or SEQ ID NO:25
[3] = target: T2, L(+)-biotinyl-aminohexanoyl-Cys(H)-Asp-Asp-Tyr-Glu-Phe-Leu-NH2 (SEQ ID NO:25)
T2 chain: CDDYEFL

[4] = target: T3, L(+)-biotinyl-aminohexanoyl-Glu-Ser-Ile-Asp-Asp-Tyr-Val-Asn-Val-Pro-Glu-Gly-OH (SEQ ID NO:13) (not fully specified)
T3 chain: ESIDDYVNVPEG

[5] = target: T4, L(+)-biotinyl-aminohexanoyl-Glu-Asp-Glu-Asp-Asp-Tyr-His-Asn-Pro-Gly-Gly-OH (SEQ ID NO:14) (not fully specified)
T4 chain: EDEDDYHNPGG

[6] = target: compounds of SEQ ID NO:12; SEQ ID NO: 13; or SEQ ID NO: 14

B1: recombinant full-length human ZAP-70 (Zeta chain-associated protein of 70 kD) with N-terminal hexa-histidine tag (protein)
chain: MPDPAAHLPFFYGSISRAEAEEHLKLAGMADGLFLLRQCLRSLGGYVLSLVHDVRFHHFPIERQLNGTYAIAGGKAHCGPAELCEFYSRDPDGLPCNLRKPCNRPSGLEPQPGVFDCLRDAMVRDYVRQTWKLEGEALEQAIISQAPQVEKLIATTAHERMPWYHSSLTREEAERKLYSGAQTDGKFLLRPRKEQGTYALSLIYGKTVYHYLISQDKAGKYCIPEGTKFDTLWQLVEYLKLKADGLIYCLKEACPNSSASNASGAAAPTLPAHPSTLTHPQRRIDTLNSDGYTPEPARITSPDKPRPMPMDTSVYESPYSDPEELKDKKLFLKRDNLLIADIELGCGNFGSVRQGVYRMRKKQIDVAIKVLKQGTEKADTEEMMREAQIMHQLDNPYIVRLIGVCQAEALMLVMEMAGGGPLHKFLVGKREEIPVSNVAELLHQVSMGMKYLEEKNFVHRDLAARNVLLVNRHYAKISDFGLSKALGADDSYYTARSAGKWPLKWYAPECINFRKFSSRSDVWSYGVTMWEALSYGQKPYKKMKGPEVMAFIEQGKRMECPPECPPELYALMSDCWIYKWEDRPDFLTVEQRMRACYYSLASKVEGPPGSTQKAEAACA
phosphorylation of the peptide by the kinase, time resolved fluorescence resonance energy transfer (Eu-anti-phosphotyrosine / SA-APC, 665 nm) [1]: are phosphorylated by ZAP-70 and by ZAP-70 activated by Lck | fluorescence units (TR-FRET phosphorylation assay, 250 nM peptide, 10 nM ZAP-70, 1 µM ATP) [2]: 20,000 to 46,000 fluorescence units | phosphorylation of the peptide by the kinase, time resolved fluorescence resonance energy transfer (Eu-anti-phosphotyrosine / SA-APC, 665 nm) [3]: are phosphorylated by ZAP-70 and by ZAP-70 activated by Lck | phosphorylation of the peptide by the kinase, time resolved fluorescence resonance energy transfer (Eu-anti-phosphotyrosine / SA-APC, 665 nm) [4]: are phosphorylated by ZAP-70 and by ZAP-70 activated by Lck | phosphorylation of the peptide by the kinase, time resolved fluorescence resonance energy transfer (Eu-anti-phosphotyrosine / SA-APC, 665 nm) [5]: are phosphorylated by ZAP-70 and by ZAP-70 activated by Lck

B2: ZAP-70 activated by Lck (protein)
chain: MPDPAAHLPFFYGSISRAEAEEHLKLAGMADGLFLLRQCLRSLGGYVLSLVHDVRFHHFPIERQLNGTYAIAGGKAHCGPAELCEFYSRDPDGLPCNLRKPCNRPSGLEPQPGVFDCLRDAMVRDYVRQTWKLEGEALEQAIISQAPQVEKLIATTAHERMPWYHSSLTREEAERKLYSGAQTDGKFLLRPRKEQGTYALSLIYGKTVYHYLISQDKAGKYCIPEGTKFDTLWQLVEYLKLKADGLIYCLKEACPNSSASNASGAAAPTLPAHPSTLTHPQRRIDTLNSDGYTPEPARITSPDKPRPMPMDTSVYESPYSDPEELKDKKLFLKRDNLLIADIELGCGNFGSVRQGVYRMRKKQIDVAIKVLKQGTEKADTEEMMREAQIMHQLDNPYIVRLIGVCQAEALMLVMEMAGGGPLHKFLVGKREEIPVSNVAELLHQVSMGMKYLEEKNFVHRDLAARNVLLVNRHYAKISDFGLSKALGADDSYYTARSAGKWPLKWYAPECINFRKFSSRSDVWSYGVTMWEALSYGQKPYKKMKGPEVMAFIEQGKRMECPPECPPELYALMSDCWIYKWEDRPDFLTVEQRMRACYYSLASKVEGPPGSTQKAEAACA
phosphorylation of the peptide by the kinase, time resolved fluorescence resonance energy transfer (Eu-anti-phosphotyrosine / SA-APC, 665 nm) [1]: are phosphorylated by ZAP-70 and by ZAP-70 activated by Lck | phosphorylation of the peptide with 33P-ATP, biotin capture plate, scintillation counting [1]: are phosphorylated by ZAP-70 | fluorescence units (TR-FRET phosphorylation assay, 250 nM peptide, 10 nM ZAP-70 plus 42 nM Lck, 1 µM ATP) [2]: 20,000 to 46,000 fluorescence units | phosphorylation of the peptide by the kinase, time resolved fluorescence resonance energy transfer (Eu-anti-phosphotyrosine / SA-APC, 665 nm) [3]: are phosphorylated by ZAP-70 and by ZAP-70 activated by Lck | phosphorylation of the peptide by the kinase, time resolved fluorescence resonance energy transfer (Eu-anti-phosphotyrosine / SA-APC, 665 nm) [4]: are phosphorylated by ZAP-70 and by ZAP-70 activated by Lck | phosphorylation of the peptide with 33P-ATP, biotin capture plate, scintillation counting [4]: are phosphorylated by ZAP-70 | phosphorylation of the peptide by the kinase, time resolved fluorescence resonance energy transfer (Eu-anti-phosphotyrosine / SA-APC, 665 nm) [5]: are phosphorylated by ZAP-70 and by ZAP-70 activated by Lck | phosphorylation of the peptide with 33P-ATP, biotin capture plate, scintillation counting [5]: are phosphorylated by ZAP-70 | Km (33P-ATP phosphorylation assay, peptide 0.08-20 µM) [6]: Km values are in the range of from 0.4 to 2.0 µM | Maximal cpm (33P-ATP phosphorylation assay) [6]: Maximal cpm range from 12,000 to 16,000

B3: recombinant full-length human Bruton's tyrosine kinase (Btk) (protein)
chain: MAAVILESIFLKRSQQKKKTSPLNFKKRLFLLTVHKLSYYEYDFERGRRGSKKGSIDVEKITCVETVVPEKNPPPERQIPRRGEESSEMEQISIIERFPYPFQVVYDEGPLYVFSPTEELRKRWIHQLKNVIRYNSDLVQKYHPCFWIDGQYLCCSQTAKNAMGCQILENRNGSLKPGSSHRKTKKPLPPTPEEDQILKKPLPPEPAAAPVSTSELKKVVALYDYMPMNANDLQLRKGDEYFILEESNLPWWRARDKNGQEGYIPSNYVTEAEDSIEMYEWYSKHMTRSQAEQLLKQEGKEGGFIVRDSSKAGKYTVSVFAKSTGDPQGVIRHYVVCSTPQSQYYLAEKHLFSTIPELINYHQHNSAGLISRLKYPVSQQNKNAPSTAGLGYGSWEIDPKDLTFLKELGTGQFGVVKYGKWRGQYDVAIKMIKEGSMSEDEFIEEAKVMMNLSHEKLVQLYGVCTKQRPIFIITEYMANGCLLNYLREMRHRFQTQQLLEMCKDVCEAMEYLESKQFLHRDLAARNCLVNDQGVVKVSDFGLSRYVLDDEYTSSVGSKFPVRWSPPEVLMYSKFSSKSDIWAFGVLMWEIYSLGKMPYERFTNSETAEHIAQGLRLYRPHLASEKVYTIMYSCWHEKADERPTFKILLSNILDVMDEES
phosphorylation of the peptide by the kinase, time resolved fluorescence resonance energy transfer [1]: are hardly phosphorylated by Lck, Btk or IRK | phosphorylation of the peptide by the kinase, time resolved fluorescence resonance energy transfer [4]: are hardly phosphorylated by Lck, Btk or IRK | phosphorylation of the peptide by the kinase, time resolved fluorescence resonance energy transfer [5]: are hardly phosphorylated by Lck, Btk or IRK
